In patent US6887705B1, “Tyrosine phosphorylated cleavage furrow-associated proteins (PSTPIPs)” (Genentech, Inc., priority 1997, dated 2005):
Positions count from the first letter of the chain named. Names may count otherwise.

T1: PTP HSCF (Mus musculus, UniProt Q61152)
T1 construct: the PST (and C-terminal homolog) of PTP HSCF (amino acids 304-453); made in house; host or cells: E. coli DH5-alpha
T1 sequence (Q61152 304-453): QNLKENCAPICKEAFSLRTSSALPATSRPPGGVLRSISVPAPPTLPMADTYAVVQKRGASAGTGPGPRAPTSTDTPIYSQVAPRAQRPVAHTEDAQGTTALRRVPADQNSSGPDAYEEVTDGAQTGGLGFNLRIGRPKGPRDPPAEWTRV

B1: tryptophan at position 205: PST PIP with tryptophan 205 mutated to alanine (protein)
chain: MMAQLQFRDAFWCRDFTAHTGYEVLLQRLLDGRKMCKDVEELLRQRAQAEERYGKELVQIARKAGGQTEMNSLRTSFDSLKQQTENVGSAHIQLALALREELRSLEEFRERQKEQRKKYEAIMDRVQKSKLSLYKKTMESKKAYDQKCRDADDAEQAFERVSANGHQKQVEKSQNKAKQCKESATEAERVYRQNIEQLERARTEAEQEHRTTCEAFQLQEFDRLTILRNALWVHCNQLSMQCVKDDELYEEVRLTLEGCDVEGDINGFIQSKSTGREPPAPVPYQNYYDREVTPLIGSPSIQPSCGVIKRFSGLLHGSPKTTPSAPAASTETLTPTPERNELVYASIEVQATQGNLNSSAQDYRALYDYTAQNSDELDISAGDILAVILEGEDGWWTVERNGQRGFVPGSYLEKL
modifications: Mus Musculus
notes: PST PIP with tryptophan 205 mutated to alanine
B2: I122MD: PST PIP clustered alanine substitution starting at I122 (protein)
chain: MMAQLQFRDAFWCRDFTAHTGYEVLLQRLLDGRKMCKDVEELLRQRAQAEERYGKELVQIARKAGGQTEMNSLRTSFDSLKQQTENVGSAHIQLALALREELRSLEEFRERQKEQRKKYEAAAARVQKSKLSLYKKTMESKKAYDQKCRDADDAEQAFERVSANGHQKQVEKSQNKAKQCKESATEAERVYRQNIEQLERARTEWEQEHRTTCEAFQLQEFDRLTILRNALWVHCNQLSMQCVKDDELYEEVRLTLEGCDVEGDINGFIQSKSTGREPPAPVPYQNYYDREVTPLIGSPSIQPSCGVIKRFSGLLHGSPKTTPSAPAASTETLTPTPERNELVYASIEVQATQGNLNSSAQDYRALYDYTAQNSDELDISAGDILAVILEGEDGWWTVERNGQRGFVPGSYLEKLDYKDDDDK
B3: N86VG: PST PIP clustered alanine substitution starting at N86 (protein)
chain: B2 chain with N86A, V87A, G88A, A122I, A123M, A124D
B4: D145QK: PST PIP clustered alanine substitution starting at D145 (protein)
chain: B2 chain with A122I, A123M, A124D, D145A, Q146A, K147A
B5: Q169VE: PST PIP clustered alanine substitution starting at Q169 (protein)
chain: B2 chain with A122I, A123M, A124D, Q169A, V170A, E171A
B6: F221: PST PIP with phenylalanine 221 mutated to alanine (protein)
chain: B2 chain with A122I, A123M, A124D, F221A
B7: E159RV: PST PIP clustered alanine substitution starting at E159 (protein)
chain: B2 chain with A122I, A123M, A124D, E159A, R160A, V161A
B8: R62K: PST PIP clustered alanine substitution starting at R62 (protein)
chain: B2 chain with R62A, K63A, A122I, A123M, A124D
B9: R99EE: PST PIP clustered alanine substitution starting at R99 (protein)
chain: B2 chain with R99A, E100A, E101A, A122I, A123M, A124D
B10: L224: PST PIP with leucine 224 mutated to alanine (protein)
chain: B2 chain with A122I, A123M, A124D, L224A
B11: E50ER: PST PIP clustered alanine substitution starting at E50 (protein)
chain: B2 chain with E50A, E51A, R52A, A122I, A123M, A124D
B12: L133YK: PST PIP clustered alanine substitution starting at L133 (protein)
chain: B2 chain with A122I, A123M, A124D, L133A, Y134A, K135A
B13: E110RQ: PST PIP clustered alanine substitution starting at E110 (protein)
chain: B2 chain with E110A, R111A, Q112A, A122I, A123M, A124D
B14: D38VE: PST PIP clustered alanine substitution starting at D38 (protein)
chain: B2 chain with D38A, V39A, E40A, A122I, A123M, A124D

The molecules below were run against T1, PTP HSCF (assay: In vitro GST pull-down binding of PST PIP forms to PTP HSCF). Conditions: in vitro.
Method: The binding was carried out according to the method of Wong and Johnson (Wong et al., J. Biol. Chem. 271(35):20981-20984 (1996)). Briefly, 1 μg of plasmid with either the PSTPIP protein or PTP HSCF under the control of the Sp6 promoter was in vitro transcribed/translated using the Promega™ TnT Rabbit Reticulocyte™ system. Samples were diluted in 50 mM HEPES, pH 7.2, 1% triton X 100, 10% glycerol, 100 mM NaCl, 5 mM EDTA and 2 μg/ml each of leupeptin, pepstatin, aprotinin, and PMSF. […] This was reacted for 1 hour at 4° C. and then the resin washed 6 times in HEPES/Triton binding buffer before SDS gel electrophoresis. The peptides were synthesized on an automated Milligen 9050 Peptide Synthesizer using standard solid phase chemistry with FMOC protected amino acids on a p-alkoxybenzyl alcohol resin. Dried peptides were re-suspended in the HEPES/Triton Binding buffer at a concentration of 10 mg/ml. Peptide inhibition was performed by adding the peptide first to the in vitro translation product and then the GST-fusion followed by the GSH-Sepharose. The binding/washing steps were as previously described. The peptides synthesized and the PTPs they were derived from were: • PXXP-HSCF: 432[…]451 (PTP HSCF) (SEQ ID NO:20), • PXXP-PEP: 782GFGNRFSKPKGPRNPPSAW800 (PTP PEP) (SEQ ID NO:21), • PXXP-PEST: 761[…]780 (PTP PEST) SEQ ID NO:22), • PXXP-CONTROL: 334[…]353 (PTP HSCF) (SEQ ID NO:23).
In vitro binding analyses between various PTP HSCF and PST PIP constructs were performed as previously described (Spencer et al, (1997), supra). Briefly, plasmids were transcribed and translated in vitro using the TnT Rabbit Reticulocyte Lysate System (Promega). Samples were diluted in 50 mM HEPES, pH 7.2, 1% triton X-100, 10% glycerol, 100 mM NaCl, and 2 μg/ml each of leupeptin, pepstatin, aprotinin and PMSF (lysis buffer). Samples were than reacted with GST fusion proteins at various concentrations, and the bound proteins were centrifuged using glutathione-sepharose beads and analyzed on SDS polyacrylamide gels. C-terminally-derived peptide inhibition studies were performed by incubating the GST fusion protein binding reactions in the presence of 10 μg/ml of the indicated peptides. Peptides were produced by FMOC-protected amino acids as previously described (Spencer et al, (1997), supra). In vivo interactions between various forms of PTP HSCF and PST PIP were also performed as previously described (Spencer et al, (1997), supra). Briefly, COS cells were transfected with various constructs, and after 48 hours, lysates were prepared and immunoprecipitated with antibodies to either the FLAG epitope contained at the C-terminus of PST PIP or an HA epitope contained at the N-terminus of PTP HSCF. The resultant blots were probed with anti-FLAG to detect PST PIP, anti-HA to detect PTP HSCF or anti-phosphotyrosine to detect levels of this modified amino acid in each protein.

Row | Molecule | binding of in vitro translated PST PIP forms to GST fusion of C-terminal 149 amino acids of PTP HSCF
1 | amino acids 1-264 of the coiled coil domain: form of PST PIP containing amino acids 1-264 | binding of PTP HSCF could be obtained
2 | B1 | no effect on PTP HSCF binding was observed
3 | B2 | either no or a minor change in the binding activity
4 | B3 | either no or a minor change in the binding activity
5 | B4 | either no or a minor change in the binding activity
6 | B5 | either no or a minor change in the binding activity
7 | B6 | no effect on PTP HSCF binding was observed
8 | B7 | either no or a minor change in the binding activity
9 | B8 | either no or a minor change in the binding activity
10 | B9 | either no or a minor change in the binding activity
11 | B10 | no effect on PTP HSCF binding was observed
12 | B11 | either no or a minor change in the binding activity
13 | B12 | either no or a minor change in the binding activity
14 | B13 | either no or a minor change in the binding activity
15 | B14 | either no or a minor change in the binding activity

Same assay, conditions: ~1 microgram per ml GST fusion protein

Row | Molecule | precipitation of in vitro translated PTP HSCF by GST fusions of PSTPIP or its domains
16 | SH3 region: GST fusion containing the SH3 domain of PSTPIP | not the SH3 region
17 | coiled coil domain: GST fusion containing the coiled coil domain of PSTPIP | mediated by the coiled coil domain
